The text below walks through data of FireProtDB (doi:10.1110/ps.8.7.1530).

For this data set the following is noted: Escherichia coli (strain K12); pH 7.4; 22 °C; GdnHCl; Fluorescence; Sodium phosphate 20 mM; reversible: yes; whole UniProt chain shown.

B1: PTS system mannose-specific EIIAB component wild type, P69797 (protein)
chain: MTIAIVIGTHGWAAEQLLKTAEMLLGEQENVGWIDFVPGENAETLIEKYNAQLAKLDTTKGVLFLVDTWGGSPFNAASRIVVDKEHYEVIAGVNIPMLVETLMARDDDPSFDELVALAVETGREGVKALKAKPVEKAAPAPAAAAPKAAPTPAKPMGPNDYMVIGLARIDDRLIHGQVATRWTKETNVSRIIVVSDEVAADTVRKTLLTQVAPPGVTAHVVDVAKMIRVYNNPKYAGERVMLLFTNPTDVERLVEGGVKITSVNVGGMAFRQGKTQVNNAVSVDEKDIEAFKKLNARGIELEVRKVSTDPKLKMMDLISKIDK
In the case of B1, the “denaturant midpoint (higher = more stable)” value worked out at 2.3 M and the unfolding free energy was determined as 10.5 kcal/mol.
